Source: patent US20230068487A1

Biological target: commercial recombinant neutrophil elastase (NE) (UniProt P08246)
Assay: cell-based or functional assay

UniProt P08246, sequence (P08246 30-247 limits assumed): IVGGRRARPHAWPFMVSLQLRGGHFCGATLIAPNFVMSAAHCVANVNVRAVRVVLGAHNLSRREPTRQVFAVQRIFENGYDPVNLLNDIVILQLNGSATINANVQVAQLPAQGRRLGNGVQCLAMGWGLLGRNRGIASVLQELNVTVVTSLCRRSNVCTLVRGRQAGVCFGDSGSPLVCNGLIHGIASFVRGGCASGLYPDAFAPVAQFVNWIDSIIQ

**Q.** Which reduction of NE activity (elastase inhibitory activity, chromogenic substrate) at 0.65 µM WT-rhAAT does the source give for “wild type recombinant human alpha-1-antitrypsin (WT-rhAAT) (from UniProt P01009 25-418)” here?
**A.** 75%
